# From the supplement of paper PMC10899765
# Tests used:
# Details in all cases: 20 nM; 72 h
# MCF10A [1] = test: percent viability (nuclei count relative to siNT); higher = more viable cells
# Protocol: (§1)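 After 72 h, cells were fixed and stained with Hoechst and anti-fibrillarin, and nucleoli per nucleus were counted with CellProfiler. Values are plate-adjusted percent effect for the one-nucleolus and 5+ nucleoli phenotypes, normalised to siNT (0%) and to the positive controls siNOL11 or siKIF11 (100%), as the mean of biological triplicates. Percent viability is the nuclei count relative to siNT.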
# MCF10A [2] = test: one-nucleolus phenotype percent effect (relative to siNT 0% and siNOL11 100%); higher = more cells with one nucleolus (ribosome biogenesis inhibition)
# Protocol: as §1
# MCF10A [3] = test: 5+ nucleoli phenotype percent effect (relative to siNT 0% and siKIF11 100%); higher = more cells with five or more nucleoli
# Protocol: as §1
Sequence,percent viability (MCF10A [1]) [%],one-nucleolus phenotype percent effect (MCF10A [2]) [%],5+ nucleoli phenotype percent effect (MCF10A [3]) [%]
AUAUACAGGGGGAGACUCUUAU [hsa-miR-1185-1-3p],20.3,9.76,-12.6
AUAUACCUGUUCGGUCUCUUUA [hsa-miR-3144-3p],30,-10.5,-12.6
AUAUGCCUGGCUAGCUCCUC [hsa-miR-4633-5p],31.4,27.8,-31.2
AUAUGGGUUUACUAGUUGGU [hsa-miR-3115],25,27.9,-8.18
AUAUGUAUAUGUGACUGCUACU [hsa-miR-3924],32,-20,-20.9
AUAUUACCAUUAGCUCAUCUUU [hsa-miR-556-3p],46.5,-7.76,-10.1
AUAUUAUUAGCCACUUCUGGAU [hsa-miR-4795-3p],27.9,3.49,-25.8
AUCAAAUAAGGACUAGUCUGCA [hsa-miR-3671],74.3,-10.1,14.8
AUCAACAGACAUUAAUUGGGCGC [hsa-miR-421],61.3,23.1,-13.6
AUCAAGGAUCUUAAACUUUGCC [hsa-miR-561-5p],38.8,5.64,-9.66
AUCACACAAAGGCAACUUUUGU [hsa-miR-377-3p],129,-9.96,-2.87
AUCACAUUGCCAGGGAUUACC [hsa-miR-23b-3p],103,0.34,-9.04
AUCACAUUGCCAGGGAUUUCC [hsa-miR-23a-3p],126,-9.26,-6.74
AUCACAUUGCCAGUGAUUACCC [hsa-miR-23c],93.5,2.08,-6.12
AUCAGGGCUUGUGGAAUGGGAAG [hsa-miR-3127-5p],18.4,49.5,-23.4
AUCAUACAAGGACAAUUUCUUU [hsa-miR-539-3p],39.4,-9.28,-9.08
AUCAUAGAGGAAAAUCCACGU [hsa-miR-376a-3p],52.2,-19.3,51.3
AUCAUAGAGGAAAAUCCAUGUU [hsa-miR-376b-3p],144,-20.4,52.2
AUCAUAUGAACCAAACUCUAAU [hsa-miR-5007-3p],107,-22.4,45.1
AUCAUGAUGGGCUCCUCGGUGU [hsa-miR-433],63.2,-2.79,-11.3

Sequence,percent viability (MCF10A [1]) [%],one-nucleolus phenotype percent effect (MCF10A [2]) [%],5+ nucleoli phenotype percent effect (MCF10A [3]) [%]
AUCAUGUAUGAUACUGCAAACA [hsa-miR-6516-3p],46.4,25.6,-35
AUCCAGUUCUCUGAGGGGGCU [hsa-miR-5195-3p],46.4,13.3,2.52
AUCCCACCACUGCCACCAU [hsa-miR-1260b],30.7,-10.3,18.9
AUCCCACCUCUGCCACCA [hsa-miR-1260a],42.3,-2.14,24.8
AUCCCCAGAUACAAUGGACAA [hsa-miR-2355-5p],68.5,1.32,-14.8
AUCCCUUGCAGGGGCUGUUGGGU [hsa-miR-623],91.7,-13.1,53.3
AUCCGCGCUCUGACUCUCUGCC [hsa-miR-937-3p],78.1,-5.97,8.26
AUCCUAGUCACGGCACCA [hsa-miR-7975],43.7,12.9,-29.1
AUCCUCUCUUCCCUCCUCCCAG [hsa-miR-7111-3p],47.3,3.35,-40
AUCCUCUUUCGUCCUUCCCACU [hsa-miR-6881-3p],49.2,22.7,-36.4
AUCCUUGCUAUCUGGGUGCUA [hsa-miR-502-5p],40.4,8.98,-11.6
AUCGCUGCGGUUGCGAGCGCUGU [hsa-miR-639],129,-17.2,61.4
AUCGCUUUACCAUUCAUGUU [hsa-miR-4790-5p],34.2,16.1,-9.48
AUCGGGAAUGUCGUGUCCGCCC [hsa-miR-425-3p],109,-1.79,-1.09
AUCGGGCCCUCGGCGCCGG [hsa-miR-3181],31.6,8.67,-23.1
AUCGUGCAUCCCUUUAGAGUGU [hsa-miR-517a-3p],46.8,3.74,-11.8
AUCGUGCAUCCCUUUAGAGUGU [hsa-miR-517b-3p],35.2,14.6,-20.3
AUCGUGCAUCCUUUUAGAGUGU [hsa-miR-517c-3p],41.6,11.8,-11.3
AUCUAAAUGCAGCAUGCCAGUC [hsa-miR-4799-5p],59.9,-0.603,15
AUCUGACCUGAUGAAGGU [hsa-miR-4256],11.7,30.3,5.64

Sequence,percent viability (MCF10A [1]) [%],one-nucleolus phenotype percent effect (MCF10A [2]) [%],5+ nucleoli phenotype percent effect (MCF10A [3]) [%]
AUCUGCCAGCUUCCACAGUGG [hsa-miR-4727-5p],42.4,17.9,-25.7
AUCUGCUCUCUUGUUCCCAG [hsa-miR-6828-3p],43.4,2.43,10.5
AUCUGGAGGUAAGAAGCACUUU [hsa-miR-516b-5p],61.6,-1.83,48.7
AUCUGUAAGAGAAAGUAAAUGA [hsa-miR-3686],48.4,-0.187,21.5
AUCUGUCUCGAUUGUUUCCAG [hsa-miR-6888-3p],110,23.5,6.29
AUGAAGCCUUCUCUGCCUUACG [hsa-miR-7843-3p],37.8,15.8,-32.5
AUGAAGUGCACUCAUGAUAUGU [hsa-miR-3616-5p],27.9,32.7,-38.4
AUGACCUAUGAAUUGACAGAC [hsa-miR-215],29.2,45.7,-16.4
AUGAGACUCAUGUAAAACAUCUU [hsa-miR-3672],52.6,34.3,-24.8
AUGAGCGACUGUGCCUGACC [hsa-miR-5708],47.3,21.4,-33
AUGAUCCAGGAACCUGCCUCU [hsa-miR-640],32.2,28.8,-28.9
AUGCACCUGGGCAAGGAUUCUG [hsa-miR-500a-3p],34.2,-2.54,-12.9
AUGCAGGCCUGUGUACAGCACU [hsa-miR-6811-5p],19.1,57,-31.3
AUGCCUCCCCCGGCCCCGCAG [hsa-miR-6836-3p],41.9,-8.85,-0.9
AUGCGAGGAUGCUGACAGUG [hsa-miR-4737],28.3,35.7,-33.6
AUGCGGACCUGGGUUAGCGGAGU [hsa-miR-4754],38.8,47.4,-38.9
AUGCUACUCGGAAAUCCCACUGA [hsa-miR-5089-3p],47.3,12.4,-30.6
AUGCUGACAUAUUUACUAGAGG [hsa-miR-628-5p],107,-9.78,32.8
AUGGAAUGUAUAUACGGAAUA [hsa-miR-3673],35.7,63.4,-48.6
